Values quoted from earlier work, collected in paper PMC4463550.
Values belong to the substance of their own block, whether it stands above or below them.

Legend:
PAD4 (Homo sapiens) = PAD4 (Homo sapiens) (UniProt Q9UM07)
Cys647 = Cys647 (UniProt position 647, LGEVHCGTNVR); test: chemical modification; details: calcium state not stated
His471 = His471 (UniProt position 471, WLSVGHVDEFL); details: PAD4; state not stated
Cys645 = Cys645 (UniProt position 645, HGEVHCGTNVR); test: chemical modification; details: PAD4, no substrate; calcium state not stated

Sequence of PAD4 (Q9UM07 whole entry): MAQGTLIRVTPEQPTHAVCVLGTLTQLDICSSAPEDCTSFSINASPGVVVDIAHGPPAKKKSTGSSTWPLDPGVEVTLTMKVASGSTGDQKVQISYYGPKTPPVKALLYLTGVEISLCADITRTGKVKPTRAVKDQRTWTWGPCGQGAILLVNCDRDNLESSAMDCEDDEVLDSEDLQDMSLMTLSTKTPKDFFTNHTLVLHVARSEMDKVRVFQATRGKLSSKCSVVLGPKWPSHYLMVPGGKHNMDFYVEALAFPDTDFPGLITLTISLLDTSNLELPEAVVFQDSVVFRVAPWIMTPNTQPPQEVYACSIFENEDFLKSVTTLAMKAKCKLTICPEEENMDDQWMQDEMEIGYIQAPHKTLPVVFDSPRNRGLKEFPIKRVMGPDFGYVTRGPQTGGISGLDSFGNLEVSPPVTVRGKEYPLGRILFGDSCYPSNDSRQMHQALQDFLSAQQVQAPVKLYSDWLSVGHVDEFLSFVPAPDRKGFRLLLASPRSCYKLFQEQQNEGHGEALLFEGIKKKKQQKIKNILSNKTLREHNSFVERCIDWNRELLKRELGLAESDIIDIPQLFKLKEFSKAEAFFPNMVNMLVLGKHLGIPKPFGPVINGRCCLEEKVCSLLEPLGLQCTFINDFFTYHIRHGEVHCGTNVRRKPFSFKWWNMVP

Kd (PAD4 (Homo sapiens)): 450 nM
Substance: PAD4 (from UniProt Q9UM07)

Substance: Protein arginine deiminase 2 (PAD2) (Homo sapiens)
pKa (Cys647; PAD2, no substrate): 8.2
pKa (Cys647; PAD2 reacting with the substrate-mimicking, positively charged inactivator 2-chloroacetamidine): 7.2

Substance: Protein arginine deiminase 4 (PAD4) (Homo sapiens)
pKa (His471): ∼7.3
pKa (Cys645): ≈ 8.3
